# Measured values reported in paper PMC10290953, “A novel ELP1 mutation impairs the function of the Elongator complex and causes a severe neurodevelopmental phenotype” (Journal of Human Genetics, 2023).
# Tests used:
# [1] = test system: ELP1 (wild type);ELP2;ELP3 (Homo sapiens;Homo sapiens;Homo sapiens); experiment: MST; conditions: none (in vitro transcribed); MST: 14 nM Cy5-tRNA, ELP123 from 1.5 uM in serial dilution, 20 mM HEPES pH 7.5, 100 mM NaCl, 5 mM DTT, 0.05% Tween 20; incubated 30 min at 4 C, measured at …
# [2] = test system: ELP1 K815T;ELP2;ELP3 (Homo sapiens;Homo sapiens;Homo sapiens); experiment: MST; conditions: curve did not reach plateau; authors state actual affinity is likely lower; none (in vitro transcribed); MST: 14 nM Cy5-tRNA, ELP123 from 1.5 uM in serial dilution, 20 mM HEPES pH 7.5, 100 mM NaCl, 5 mM DTT, 0.05% Tween 20; incubated 30 min at 4 C, measured at …
# [3] = target: the molecule itself; experiment: SEC; purified ELP1_(715-1332) proteins on a S200 10/300 increase gel filtration column with calibration standards; fractions on 12% SDS-PAGE, Coomassie
Molecule,Kd [1],Kd [2],binding result [3]
tRNAGlnUUG,50 nM,150 nM,
"human ELP1 N-terminal truncation, residues 715-1332 (ELP1_(715-1332)) (domain or fragment, UniProt O95163 715-1332, looked up, ELP1, Homo sapiens, UniProt O95163, amino acids 715 to 1332; cloned with NcoI and XhoI into pETM11; also called ELP1CT; ELP1 C-terminal construct; source: E. coli BL21 pRARE, purified (NiNTA, S200 gel filtration)) NLEVVHHRALVLAQIRKWLDKLMFKEAFECMRKLRINLNLIYDHNPKVFLGNVETFIKQIDSVNHINLFFTELKEEDVTKTMYPAPVTSSVYLSRDPDGNKIDLVCDAMRAVMESINPHKYCLSILTSHVKKTTPELEIVLQKVHELQGNAPSDPDAVSAEEALKYLLHLVDVNELYDHSLGTYDFDLVLMVAEKSQKDPKEYLPFLNTLKKMETNYQRFTIDKYLKRYEKAIGHLSKCGPEYFPECLNLIKDKNLYNEALKLYSPSSQQYQDISIAYGEHLMQEHMYEPAGLMFARCGAHEKALSAFLTCGNWKQALCVAAQLNFTKDQLVGLGRTLAGKLVEQRKHIDAAMVLEECAQDYEEAVLLLLEGAAWEEALRLVYKYNRLDIIETNVKPSILEAQKNYMAFLDSQTATFSRHKKRLLVVRELKEQAQQAGLDDEVPHGQESDLFSETSSVVSGSEMSGKYSHSNSRISARSSKNRRKAERKKHSLKEGSPLEDLALLEALSEVVQNTENLKDEVYHILKVLFLFEFDEQGRELQKAFEDTLQLMERSLPEIWTLTYQQNSATPVLGPNSTANSIMASYQQQKTSVPVLDAELFIPPKINRRTQWKLSLLD",,,binds
"human ELP1_(715-1332)K815T (domain or fragment, UniProt O95163 715-1332, looked up, ELP1, Homo sapiens, UniProt O95163, amino acids 715 to 1332, with the patient variant p.Lys815Thr; Patient-derived variant (c.2444A>C; p.Lys815Thr); PDB 5CQR is the wild-type parent; also called ELP1K815T C-terminal construct; source: E. coli BL21 pRARE, purified (NiNTA, S200 gel filtration)) NLEVVHHRALVLAQIRKWLDKLMFKEAFECMRKLRINLNLIYDHNPKVFLGNVETFIKQIDSVNHINLFFTELKEEDVTKTMYPAPVTSSVYLSRDPDGNTIDLVCDAMRAVMESINPHKYCLSILTSHVKKTTPELEIVLQKVHELQGNAPSDPDAVSAEEALKYLLHLVDVNELYDHSLGTYDFDLVLMVAEKSQKDPKEYLPFLNTLKKMETNYQRFTIDKYLKRYEKAIGHLSKCGPEYFPECLNLIKDKNLYNEALKLYSPSSQQYQDISIAYGEHLMQEHMYEPAGLMFARCGAHEKALSAFLTCGNWKQALCVAAQLNFTKDQLVGLGRTLAGKLVEQRKHIDAAMVLEECAQDYEEAVLLLLEGAAWEEALRLVYKYNRLDIIETNVKPSILEAQKNYMAFLDSQTATFSRHKKRLLVVRELKEQAQQAGLDDEVPHGQESDLFSETSSVVSGSEMSGKYSHSNSRISARSSKNRRKAERKKHSLKEGSPLEDLALLEALSEVVQNTENLKDEVYHILKVLFLFEFDEQGRELQKAFEDTLQLMERSLPEIWTLTYQQNSATPVLGPNSTANSIMASYQQQKTSVPVLDAELFIPPKINRRTQWKLSLLD",,,binds
